Measurements as given in the supplement of paper PMC12042874.
± gives the uncertainty stated by the source.

Experiment: amyloid nucleation score (Sup35N fusion, yeast selection) (log enrichment); library NNK1; higher = more nucleation; inactive = no reads after selection
How it was run: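 DiMSum was used to calculate nucleation scores as log enrichment of output over input reads, centred on the mode score of non-aggregating sequences. Sequences with fewer than 100 input reads were not scored. Input and output came from Illumina sequencing of plasmid inserts in psi-negative yeast expressing peptides of 20 random codons fused to Sup35N, induced 24 hours with 100 μM copper sulfate and then grown 7 days at 30°C on medium lacking adenine and uracil.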

Substance | amyloid nucleation score
LQKVFLAVDSYW | -0.347 ± 0.92
HQINRWRLLPRGGTFKDGHN | 0.703 ± 0.54
YSFRAIDTQLTQTLTWLLIR | -0.563 ± 0.53
TMVFVCSNYGPSFSLLVC | 2.83 ± 0.24
QSTVTCRFMCVVWGSNW | -0.078 ± 0.47
DLNDMAIRV | 0.004 ± 0.31
LGTTDPYVYSIIMYAFLWIY | 0.386 ± 0.47
VLKCFSLEVVTWDSACLAGL | 0.252 ± 1.1
SLDCWLMGGRTANLVRRLGR | -0.39 ± 0.95
NGRTLINQYESLEATGICTV | 0.684 ± 0.78
GSRLCRMSSSMIGSLRVIWG | -0.146 ± 0.25
ENRYMELTFQCSARRVG | 2.81 ± 0.11
IKAELAKCLNTACVKFFCDV | 0.715 ± 0.37
RLMSADFMQQEMMRGKVMAG | -0.351 ± 0.41
GMRVMRYYLPRGNQKFGESR | 0.823 ± 0.63
TCIDVQQYDCLVFFYFLHGF | inactive
KVSEDMYSHFQQSFSQAIIV | inactive
EVTDVRLS | 0.862 ± 0.62
QTGAAFMVAASRGKKTGVLR | 0.327 ± 0.28
SGMYSMYQDKT | -0.716 ± 0.5
LACWLTTRNKCILNSLITLV | 0.08 ± 1.1
YNLWIGLCRIMEEVILGGT | -0.863 ± 0.61

Substance | amyloid nucleation score
LGKPVWVQEAKLDADNLWCV | -0.438 ± 0.49
SLFMDRFNVDVI | -0.107 ± 0.35
KIGRGRSNAVLLLAEDVYVG | -0.57 ± 1.2
SCAYQGKLSIAAMLVSGFGC | 1.16 ± 0.97
LCYAGVVLQYVILDHKRSCD | 6.233 ± 0.059
RVSGMAGFFTIKLLKRRSWA | -0.503 ± 0.62
PMSGVGYGRMRLSAAWPVDK | -0.604 ± 0.78
GFVTKDWLSVMRYIYQMLTS | -0.016 ± 0.4
YTWIEHAWSS | -0.062 ± 0.55
HLNLIVTRFASIWVAAFMCR | -0.282 ± 0.77
NKQETSKWLWECGDCSRYLY | 1.18 ± 0.41
RFVLWYYDY | 3.12 ± 0.076
YSVVRCRVANC | 0.263 ± 0.61
THSRFKVCPVSMLCNAPQQR | 0.626 ± 1.2
NSSHLLVMCDICYNFKVRTL | -1.69 ± 1.5
SVLCTLALSTCLGCLIVS | inactive
EQNCVGVCSELNVFYGACVI | 2.12 ± 0.48
QTKRSCCSFFVNL | 6.603 ± 0.05
GVSVSYLDGGMAWPNEGGRK | 0.19 ± 0.62
FSRCCTFSSDYFNARCIERN | 1.22 ± 0.23
GRGVPGCGCIRDRSLMTNWS | -0.664 ± 0.41
SLMGALEIQRCSAFSSFLFR | 1.32 ± 0.41

Substance | amyloid nucleation score
IISGIIIRYIDYNYRD | inactive
IYGCTCVDFGLSSNS | -0.46 ± 0.84
IFLIVMFPLFNDCLHCYKTC | 1.3 ± 0.13
VFRDVHD | 0.417 ± 0.42
CKTLMLCTRICFDANQLASR | 1.71 ± 0.78
NTKWLMGSLSIIVCMPKSYW | 6.294 ± 0.045
APRYHAVFLLII | -0.505 ± 0.79
FSDVCGPSPLCW | 0.142 ± 0.44
HNYSDFFNESWHNGLIYSY | -0.571 ± 1
ILKALF | 1.53 ± 0.8
TGSHLPRDGSVSKCVFRY | 0.248 ± 0.53
VTTRLPIYRVKF | 0.228 ± 0.37
YLIFKSFK | 1.25 ± 0.61
VVSYSHAIVRLVLSCDMGRC | 0.441 ± 0.47
DRTRLVSHHTRIVRRWAHVY | 0.064 ± 0.65
LKCFLINVMLLEMLPFWDRS | 1.62 ± 0.55
GNNLHLRS | -0.121 ± 0.66
TRTLLNVHCCPSVW | 6.614 ± 0.054
GCIWWPTDRPLLLSPAMSYS | 0.133 ± 0.37
ESWAITWVGLYGCTLTVIRN | -0.148 ± 0.47
SECIVFYIPTYKHD | 7.909 ± 0.059
GPRDFGDAWCYTSNNVKSCS | 0.216 ± 0.48

Substance | amyloid nucleation score
FNSARGSLVPRFPRGEQR | -0.787 ± 1.9
YSLTYVNSYLFGINDCKGPD | 8.164 ± 0.054
SPAMYPHNSRFLMYITSFMQ | 1.08 ± 0.72
VMWSVDFWYPAMSGVIPDQF | 1.45 ± 0.65
FGFHRVGSGIMRVVAQH | 0.242 ± 0.44
LMESVAVFPNSRLPILTEC | -0.011 ± 0.56
NFRLCLWSDAGLIGKAVFGY | 0.718 ± 0.39
RVYYLMDLIACCPYSLGHRN | 8.606 ± 0.051
FSFDLLSVESGITNV | -0.054 ± 0.82
LWPEPVSRSIHSRSH | 0.976 ± 0.55
SSSADLAATARLFAGWEVLY | 0.045 ± 0.74
LDINDTMYETNCFG | -0.488 ± 0.58
VASTTSGRHWSLRGHKRFGR | 1.28 ± 0.72
LGRGRKSTMVSQRVERAGVC | -0.626 ± 0.58
TLIGSDLVFGSRDPGWGCTI | -0.406 ± 0.45
TRRDNVPQHNLGVTLLMVRE | -1.29 ± 2.7
YYTNWQEGYRVGRFRCDGHN | inactive
NWFLYWT | 3.77 ± 0.11
LMGECGLSFLTPY | 0.275 ± 0.84
